Results on two proteins are retold here after US6890721.

This series addresses poly (ADP-ribose) polymerase (PARP).

B1: granzyme B-processed ICE LAP-6 (activated) (protein)
chain: IGSGGFGDVGALESLRGNADLAYILSMEPCGHCLIINNVNFCRESGLRTRTGSNIDCEKLRRRFSSLHFMVEVKGDLTAKKMVLALLELARQDHGALDCCVVVILSHGCQASHLQFPGAVYGTDGCPVSVEKIVNIFNGTSCPSLGGKPKLFFIQACGGEQKDHGFEVASTSPEDESPGSNPEPDATPFQEGLRTFDQLDAISSLPTPSDIFVSYSTFPGFVSWRDPKSGSWYVETLDDIFEQWAHSEDLQSLLLRVANAVSVKGIYKQMPGCFNFLRKKLFFKTSHHHHHH
Regarding B1, the “PARP cleavage (immunoblot with anti-PARP monoclonal antibody C-2-10)” value was “Both granzyme B-processed Yama and ICE LAP-6 were active as determined by their ability to cleave PARP”.

B2: granzyme B-processed Yama (activated) (protein)
chain: SGISLDNSYKMDYPEMGLCIIINNKNFHKSTGMTSRSGTDVDAANLRETFRNLKYEVRNKNDLTREEIVELMRDVSKEDHSKRSSFVCVLLSHGEEGIIFGTNGPVDLKKITNFFRGDRCRSLTGKPKLFIIQACRGTELDCGIETDSGVDDDMACHKIPVEADFLYAYSTAPGYYSWRNSKDGSWFIQSLCAMLKQYADKLEFMHILTRVNRKVATEFESFSFDATFHAKKQIPCIVSMLTKELYFYH
For the protein B2, the “PARP cleavage (immunoblot with anti-PARP monoclonal antibody C-2-10)” value is “Both granzyme B-processed Yama and ICE LAP-6 were active as determined by their ability to cleave PARP”.
